In experiment [1] the target is T1, natural Bet v 1 (Indoor, Cat #NA-BV1-1) (Betula verrucosa (European white birch, …, UniProt P15494 2-160)).
T1 sequence: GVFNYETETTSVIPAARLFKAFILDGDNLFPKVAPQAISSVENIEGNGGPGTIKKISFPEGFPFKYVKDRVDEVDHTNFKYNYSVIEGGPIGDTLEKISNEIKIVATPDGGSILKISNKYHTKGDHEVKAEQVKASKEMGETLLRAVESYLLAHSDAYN
Put plainly: cell-based or functional assay.

Experiment [2] concerns the target T1, natural Bet v 1 (Indoor, Cat #NA-BV1-1). Put plainly: SPR Biacore, mAb captured on anti-hFc, 25C.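 Also: rate constants from sensorgrams fitted to a 1:1 model with mass transport limitation, KD and t½ derived from kinetic constants, run in HBS-ET buffer at pH 7.4.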
Experiment [3] shares this target. The experiment is described as follows: SPR Biacore, mAb captured on anti-hFc, 37C.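 Also: purified anti-Bet v 1 monoclonal antibodies, HBS-ET running buffer pH 7.4, rate constants from 1:1 model fit with mass transport limitation, KD and t½ calculated from kinetic constants.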
The target in experiment [4] is T2, mutant Bet v 1-MMH (Betula verrucosa (Betula pendula)).
T2 construct: CHO produced; also called recombinant mutant Bet v 1 with C-terminal myc-myc-hexahistidine tag
T2 chain: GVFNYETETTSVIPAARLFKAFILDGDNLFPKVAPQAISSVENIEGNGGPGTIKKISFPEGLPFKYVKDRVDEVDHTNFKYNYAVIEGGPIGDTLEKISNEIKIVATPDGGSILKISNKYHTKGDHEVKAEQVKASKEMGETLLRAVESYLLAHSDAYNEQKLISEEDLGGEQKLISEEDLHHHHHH
Put plainly: BLI Octet, mutant Bet v 1-MMH captured on anti-Penta-His tips.

Experiment [5] addresses T3, Alder (Aln g 1, MyBiosource, Cat #MBS1041484) (Alder, UniProt P38948 2-160, limits assumed).
T3 construct: Bought reagent
T3 sequence (looked up): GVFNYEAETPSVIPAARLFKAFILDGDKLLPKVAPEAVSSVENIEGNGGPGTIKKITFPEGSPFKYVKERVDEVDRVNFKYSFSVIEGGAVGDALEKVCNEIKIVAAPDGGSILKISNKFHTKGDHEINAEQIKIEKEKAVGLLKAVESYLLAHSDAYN
Put plainly: SPR Biacore, 25C.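 Also: binding of related allergens to purified monoclonal anti-Bet v 1 antibodies by surface plasmon resonance in HEPES-buffered saline pH 7.4, kinetics fitted to a 1:1 model with mass transport.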

Experiment [6] deals with T4, Apple (Mal d 1, MyBiosource, Cat #MBS1224919) (Apple, UniProt P43211 2-159, limits assumed).
T4 construct: Bought reagent
T4 sequence (looked up): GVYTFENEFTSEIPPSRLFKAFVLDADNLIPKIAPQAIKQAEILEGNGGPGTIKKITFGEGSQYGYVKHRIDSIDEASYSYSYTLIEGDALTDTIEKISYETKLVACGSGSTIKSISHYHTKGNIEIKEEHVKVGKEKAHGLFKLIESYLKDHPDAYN
Put plainly: SPR Biacore, 25C.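 Also: binding of related allergens to purified monoclonal anti-Bet v 1 antibodies by surface plasmon resonance in HEPES-buffered saline pH 7.4, kinetics fitted to a 1:1 model with mass transport.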

The target in experiment [7] is T5, Celery (Api g 1, MyBiosource, Cat #MBS1171376) (Celery, UniProt P49372 1-154, limits assumed).
T5 construct: Bought reagent
T5 sequence (looked up): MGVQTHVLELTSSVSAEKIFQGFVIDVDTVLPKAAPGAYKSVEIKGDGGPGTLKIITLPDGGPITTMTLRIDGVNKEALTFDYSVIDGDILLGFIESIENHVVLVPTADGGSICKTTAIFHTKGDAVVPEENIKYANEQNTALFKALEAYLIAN
The experiment is described as follows: SPR Biacore, 25C.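 Also: binding of related allergens to purified monoclonal anti-Bet v 1 antibodies by surface plasmon resonance in HEPES-buffered saline pH 7.4, kinetics fitted to a 1:1 model with mass transport.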

For experiment [8], the target named is T6, mutant Bet v 1-MMH (Betula verrucosa (European white birch, …)).
T6 construct: also called CHO produced recombinant Bet v 1 containing a S85A mutation with a C-terminal myc-myc hexahistidine tag
T6 chain: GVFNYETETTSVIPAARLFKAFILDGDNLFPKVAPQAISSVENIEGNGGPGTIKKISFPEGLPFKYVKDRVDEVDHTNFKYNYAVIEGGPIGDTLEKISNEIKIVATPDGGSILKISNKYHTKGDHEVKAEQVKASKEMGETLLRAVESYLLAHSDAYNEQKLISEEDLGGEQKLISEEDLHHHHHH
Put plainly: BLI Octet HTX, mutant Bet v 1-MMH captured on anti-Penta-His tips, 25C.

B1: H4H17082P2 (antibody, human IgG4 S228P, kappa, V domains shown)
VH: QVQLVQSGAEVKKPGASVKVSCKASGYTFISYNIFWVRQATGQGLDWMGWMNPFRNNAGYAQKFQGRVTVTWDTSISTAYMELSSLSSEDTAIYYCAREHGSSWGFFDYWGQGTLVTVSS
VL: not shown
notes: human IgG4; also called REGN5715; MAB2
For the molecule B1, the “blockade of basophil activation (phospho-Erk MFI in basophils of PBMCs of birch allergic donors, 100 pM natural Bet v 1)” value in experiment [1] was 70%. Also, in experiment [2], the “100 nM natural Bet v 1 Bound (RU)” value worked out at 72 RU and the dissociation constant Kd is 1.09 nM. For the same molecule, in experiment [3], the “100 nM natural Bet v 1 Bound (RU)” value stood at 83 RU, the dissociation constant (Kd) is 2.43 nM and the t½ came out at 6.3 min.

B2: H4H17001P (antibody, human IgG4, V domains shown)
VH: QVQLVESGGGLVKPGGSLRLSCAASGFTFSDYYMNWIRQAPGKGLEWISLISSSGSAIYYSDSVKGRFTISRDNARKSLYLQVNSLRAEDTAVYYCARDRGEWALGAYYYGLDVWGQGTTVTVSS
VL: DIVMTQSPLSLPVTPGEPASISCRSSQSLLHSDGYNYLDWYLQKSGQSPQLLIYLGSNRASGVPDRFSGSGSGTDFTLKISRMEAEDVGVYYCMQALQTPYTFGQGTKLEIK
notes: human IgG4 Fc (H4H prefix)
Take B2: the binding result with mutant Bet v 1-MMH [4] was “no binding (tested: 50 µg/mL)”.

B3: H4H16943P (antibody, human IgG4, V domains shown)
VH: EVQLVESGGGLVQPGGSLRLSCTASGFMSSMYWMSWVRQAPGKGLEWVSNIKQDGTEKNYVESVKGRFTISRDNAKNSLYLQINSLRGEDTAVYYCARDLYSSSSGYYYYGLDVWGQGTTVTVSS
VL: DIVMTQSPLSLPVTPGEPASISCRSSQSLLHSNKYNYLDWYLQKPGQSPQLLIYLSSNRASGVPDRFSGSGSGTEFTLKISRVEAEDVGIYYCMQALHTPLTFGGGTKVEIK
Consider B3, for which the binding result is recorded as “no binding (tested: 100 nM)” in experiment [5], “no binding (tested: 100 nM)” in experiment [6], “no binding (tested: 100 nM)” in experiment [7] and “no binding (tested: 50 µg/mL)” with mutant Bet v 1-MMH [8]. Also, the “100 nM natural Bet v 1 Bound (RU)” value in experiment [2] is 71 RU; in experiment [3] it was 88 RU. Further, the Kd was found to be 1.4 nM in experiment [2] and 4.89 nM in experiment [3]. Further, the koff is 0.00023 s⁻¹ in experiment [2] and 0.00127 s⁻¹ in experiment [3]. In addition, the association rate constant (kon) in experiment [2] was 164000 M⁻¹ s⁻¹; in experiment [3], 260000 M⁻¹ s⁻¹. In addition, the t½ in experiment [2] was found to be 50 min; in experiment [3], 9.1 min.

B4: H4H16943P (antibody, human IgG4, V domains shown)
VH: EVQLVESGGGLVQPGGSLRLSCTASGFMSSMYWMSWVRQAPGKGLEWVSNIKQDGTEKNYVESVKGRFTISRDNAKNSLYLQINSLRGEDTAVYYCARDLYSSSSGYYYYGLDVWGQGTTVTVSS
VL: DIVMTQSPLSLPVTPGEPASISCRSSQSLLHSNKYNYLDWYLQKPGQSPQLLIYLSSNRASGVPDRFSGSGSGTEFTLKISRVEAEDVGIYYCMQALHTPLTFGGGTKVEIK
notes: human IgG4 Fc (H4H prefix)
Regarding B4, the binding result with mutant Bet v 1-MMH [4] is recorded as “no binding (tested: 50 µg/mL)”.

The values above are taken from patent US20240083986A1 (published 2024).
